These results are taken from patent WO2008044032A2 (dated 2008).

The experiment deals with T1, CD20 on the CD20+ human Daudi Burkitt lymphoma cell line (human, UniProt P11836 1-297).
T1 construct: whole, on cells; also called Daudi cells
T1 sequence (looked up): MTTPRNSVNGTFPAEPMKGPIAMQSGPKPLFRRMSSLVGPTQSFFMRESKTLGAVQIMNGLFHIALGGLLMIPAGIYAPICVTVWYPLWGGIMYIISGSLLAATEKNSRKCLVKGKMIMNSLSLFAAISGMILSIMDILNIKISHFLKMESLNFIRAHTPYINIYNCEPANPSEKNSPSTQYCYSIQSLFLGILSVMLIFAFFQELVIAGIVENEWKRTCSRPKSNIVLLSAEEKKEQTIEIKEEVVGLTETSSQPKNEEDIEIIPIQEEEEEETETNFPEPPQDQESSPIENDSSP
Briefly: FACS binding assay on CD20+ Daudi cells, serial dilutions of antibody. On the technique in general: Flow cytometry measures light scatter and fluorescence of single cells or particles in a stream.

B1: chimeric anti-CD20 antibody (unmodified chimeric Leu 16) (antibody, human IgG1, V domains shown)
VH: EVQLQQSGAELVKPGASVKMSCKASGYTFTSYNMHWVKQTPGQGLEWIGAIYPGNGDTSYNQKFKGKATLTADKSSSTAYMQLSSLTSEDSADYYCARSNYYGSSYWFFDVWGAGTTVTVSS
VL: DIVLTQSPAILSASPGEKVTMTCRASSSVNYMDWYQKKPGSSPKPWIYATSNLASGVPARFSGSGSGTSYSLTISRVEAEDAATYYCQQWSFNPPTFGGGTKLEIK
notes: Only the variable regions are printed
For B1, the binding result is “binds”.
